Experimental findings from doi:10.1101/2024.04.20.590211 (bioRxiv, 2024) are described below.

For the assay, the target named is FluPolB, influenza B/Memphis/2003 polymerase heterotrimer (wild type) (influenza B virus B/Memphis/2003, UniProt Q5V8Z9;Q5V8Y6;Q5V8X3). The assay is described as follows: SEC.

B1: hANP32A 144-249 (LCAR alone) (domain or fragment)
chain: YLDGYDRDDKEAPDSDAEGYVEGLDDEEEDEDEEEYDEDAQVVEDEEDEDEEEEGEEEDVSGEEEEDEEGYNDGEVDDEEDEEELGEEERGQKRKREPEDEGEDDD
In the case of B1, the binding result was “binds”.
